According to publication PMC11098746 (2024):
No end group written: not given here.

Molecular target: Circumsporozoite protein (CSP) (Plasmodium falciparum (isolate 3D7), UniProt Q7K740)
Assay: AVEXIS screen signal:noise (double-corrected)

Sequence of Circumsporozoite protein (CSP) (Q7K740 19-374): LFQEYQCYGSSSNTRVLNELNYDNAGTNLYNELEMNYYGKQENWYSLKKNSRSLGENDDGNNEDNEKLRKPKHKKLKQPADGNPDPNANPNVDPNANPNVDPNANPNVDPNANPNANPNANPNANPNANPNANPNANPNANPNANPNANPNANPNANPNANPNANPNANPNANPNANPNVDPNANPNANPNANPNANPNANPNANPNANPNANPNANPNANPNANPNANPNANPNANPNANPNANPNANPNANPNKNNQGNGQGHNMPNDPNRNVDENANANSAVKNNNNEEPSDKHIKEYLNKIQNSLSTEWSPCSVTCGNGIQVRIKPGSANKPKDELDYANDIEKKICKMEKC

| Binder | binding score |
| --- | --- |
| ADP119 (protein, bait human Fc-tagged dimer) MDVCVRLALWLLWGLLLHQGQSLSHSHSEKATGTSSGANSEESTAAEFCRIDKPLCHSEDEKLSFEAVRNIHKLMDDDANGDVDVEESDEFLREDLNYHDPTVKHSTFHGEDKLISVEDLWKAWKSSEVYNWTVDEVVQWLITYVELPQYEETFRKLQLSGHAMPRLAVTNTTMTGTVLKMTDRSHRQKLQLKALDTVLFGPPLLTRHNHLKD | 1.89 |
| ADP350 (protein, bait human Fc-tagged dimer) MAAAGRLPSSWALFSPLLAGLALLGVGPVPARALHNVTAELFGAEAWGTLAAFGDLNSDKQTDLFVLRERNDLIVFLADQNAPYFKPKVKVSFKNHSALITSVVPGDYDGDSQMDVLLTYLPKNYAKSELGAVIFWGQNQTLDPNNMTILNRTFQDEPLIMDFNGDLIPDIFGITNESNQPQILLGGNLSWHPALTTTSKMRIPHSHAFIDLTEDFTADLFLTTLNATTSTFQFEIWENLDGNFSVSTILEKPQNMMVVGQSAFADFDGDGHMDHLLPGCEDKNCQKSTIYLVRSGMKQWVPVLQDFSNKGTLWGFVPFVDEQQPTEIPIPITLHIGDYNMDGYPDALVILKNTSGSNQQAFLLENVPCNNASCEEARRMFKVYWELTDLNQIKDAMVATFFDIYEDGILDIVVLSKGYTKNDFAIHTLKNNFEADAYFVKVIVLSGLCSNDCPRKITPFGVNQPGPYIMYTTVDANGYLKNGSAGQLSQSAHLALQLPYNVLGLGRSANFLDHLYVGIPRPSGEKSIRKQEWTAIIPNSQLIVIPYPHNVPRSWSAKLYLTPS | 0.985 |
| ADP356 (protein, bait human Fc-tagged dimer) MAPLPGALGVAAAAALWLLLLLLPRTRADEHEHTYQDKEEVVLWMNTVGPYHNRQETYKYFSLPFCVGSKKSISHYHETLGEALQGVELEFSGLDIKFKDDVMPATYCEIDLDKEKRDAFVYAIKNHYWYQMYIDDLPIWGIVGEADENGEDYYLWTYKKLEIGFNGNRIVDVNLTSEGKVKLVPNTKIQMSYSVKWKKSDVKFEDRFDKYLDPS | 1 |
| ADP266 (protein, bait human Fc-tagged dimer) EEFRPEMLQGKKVIVTGASKGIGREMAYHLAKMGAHVVVTARSKETLQKVVSHCLELGAASAHYIAGTMEDMTFAEQFVAQAGKLMGGLDMLILNHITNTSLNLFHDDIHHVRKSMEVNFLSYVVLTVAALPMLKQSNGSIVVVSSLAGKVAYPMVAAYSASKFALDGFFSSIRKEYSVSRVNVSITLCVLGLIDTETAMKAVSGIVHMQAAPKEECALEIIKGGALRQEEVYYDSSLWTTLLIRNPCRKILEFLYSTSYNMDRFINK | 0.642 |
| ADP349 (protein, bait human Fc-tagged dimer) MAAAGPRRSVRGAVCLHLLLTLVIFSRAGEACKKVILNVPSKLEADKIIGRVNLEECFRSADLIRSSDPDFRVLNDGSVYTARAVALSDKKRSFTIWLSDKRKQTQKEVTVLLEHQKKVSKTRHTRETVLRRAKRRWAPIPCSMQENSLGPFPLFLQQVESDAAQNYTVFYSISGRGVDKEPLNLFYIERDTGNLFCTRPVDREEYDVFDLIAYASTADGYSADLPLPLPIRVEDENDNHPVFTEAIYNFEVLESSRPGTTVGVVCATDRDEPDTMHTRLKYSILQQTPRSPGLFSVHPSTGVITTVSHYLDREVVDKYSLIMKVQDMDGQFFGLIGTSTCIITVTDSNDNAPTFRQNAYEAFVEENAFNVEILRIPIEDKDLINTANWRVNFTILKGNENGHFKISTDKETNEGVLSVVKPLNYEENRQVNLEIGVNNEAPFARDIPRVTALNRALVTVHVRDLDEGPECTPAAQYVRIKENLAVGSKINGYKAYDPENRNGNGLRYKKLHDPKGWITIDEISGSIITSKILDREVETPKNELYNITVLAIDKDDRSCTGTLAVNIEDVNDNPPEILQEYVVICKPKMGYTDILAVDPDEPVHGAPFYFSLPNTSPEISRLWSLTKVNDTAARLSYQKNAGFQEYTIPITVKDRAGQAATKLLRVNLCECTHPTQCRATSRSTGVILG | 0.666 |
| MAIHKALVMCLGLPLFLFPGAWAQGHVPPGCSQGLNPLYYNLCDRSGAWG (cysteine pairing not given here; also: human Fc-tagged dimer) [ADP328] | 1.01 |
| ADP360 (protein, bait human Fc-tagged dimer) MGAARGSPARPRRLPLLSVLLLPLLGGTQTAIVFIKQPSSQDALQGRRALLRCEVEAPGPVHVYWLLDGAPVQDTERRFAQGSSLSFAAVDRLQDSGTFQCVARDDVTGEEARSANASFNIKWIEAGPVVLKHPASEAEIQPQTQVTLRCHIDGHPRPTYQWFRDGTPLSDGQSNHTVSSKERNLTLRPAGPEHSGLYSCCAHSAFGQACSSQNFTLSIADESFARVVLAPQDVVVARYEEAMFHCQFSAQPPPSLQWLFEDETPITNRSRPPHLRRATVFANGSLLLTQVRPRNAGIYRCIGQGQRGPPIILEATLHLAEIEDMPLFEPRVFTAGSEERVTCLPPKGLPEPSVWWEHAGVRLPTHGRVYQKGHELVLANIAESDAGVYTCHAANLAGQRRQDVNITVATVPSWLKKPQDSQLEEGKPGYLDCLTQATPKPTVVWYRNQMLISEDSRFEVFKNGTLRINSVEVYDGTWYRCMSSTPAGSIEAQARVQVLEKLKFTPPPQPQQCMEFDKEATVPCSATGREKPTIKWERADGSSLPEWVTDNAGTLHFARVTRDDAGNYTCIASNGPQGQIRAHVQLTVAVFITFKVEPERTTVYQGHTALLQCEAQGDPKPLIQWKGKDRILDPTKLGPRMHIFQNGSLVIHDVAPEDSGRYTCIAGNSCNIKHTEAPLYVVDKPVPEESEGPGSPPP | 0.739 |
| ADP315 (protein, bait human Fc-tagged dimer) MARAHWGCCPWLVLLCACAWGHTKPVDLGGQDVRNCSTNPPYLPVTVVNTTMSLTALRQQMQTQNLSAYIIPGTDAHMNEYIGQHDERRAWITGFTGSAGTAVVTMKKAAVWTDSRYWTQAERQMDCNWELHKEVGTTPIVTWLLTEIPAGGRVGFDPFLLSIDTWESYDLALQGSNRQLVSITTNLVDLVWGSERPPVPNQPIYALQEAFTGSTWQEKVSGVRSQMQKHQKVPTAVLLSALEETAWLFNLRASDIPYNPFFYSYTLLTDSSIRLFANKSRFSSETLSYLNSSCTGPMCVQIEDYSQVRDSIQAYSLGDVRIWIGTSYTMYGIYEMIPKEKLVTDTYSPVMMTKAVKNSKEQALLKASHVRDAVAVIRYLVWLEKNVPKGTVDEFSGAEIVDKFRGEEQFSSGPSFETISASGLNAALAHYSPTKELNRKLSSDEMYLLDSGGQYWDGTTDITRTVHWGTPSAFQKEAYTRVLIGNIDLSRLIFPAATSGRMVEAFARRALWDAGLNYGHGTGHGIGNFLCVHEWPVGFQSNNIAMAKGMFTSIEPGYYKDGEFGIRLEDVALVVEAKTKYPGSYLTFEVVSFVPYDRNLIDVSLLSPEHLQYLNRYYQTIREKVGPELQRRQLLEEFEWLQQHTEPLA | 2.59 |
| ADP357 (protein, bait human Fc-tagged dimer) MGPPSAPPCRLHVPWKEVLLTASLLTFWNPPTTAKLTIESTPFNVAEGKEVLLLAHNLPQNRIGYSWYKGERVDGNSLIVGYVIGTQQATPGPAYSGRETIYPNASLLIQNVTQNDTGFYTLQVIKSDLVNEEATGQFHVYPELPKPSISSNNSNPVEDKDAVAFTCEPEVQNTTYLWWVNGQSLPVSPRLQLSNGNMTLTLLSVKRNDAGSYECEIQNPASANRSDPVTLNVLYGPDGPTISPSKANYRPGENLNLSCHAASNPPAQYSWFINGTFQQSTQELFIPNITVNNSGSYMCQAHNSATGLNRTTVTMITVSGSAP | 0.755 |
| ADP371 (protein, bait human Fc-tagged dimer) MRRAWILLTLGLVACVSAESRAELTSDKDMYLDNSSIEEASGVYPIDDDDYASASGSGADEDVESPELTTSRPLPKILLTSAAPKVETTTLNIQNKIPAQTKSPEETDKEKVHLSDSERKMDPAEEDTNVYTEKHSDSLFKRTE | 1.57 |
| ADP129 (protein, bait human Fc-tagged dimer) MFPFYSCWRTGLLLLLLAVAVRESWQTEEKTCDLVGEKGKESEKELALVKRLKPLFNKSFESTVGQGSDTYIYIFRVCREAGNHTSGAGLVQINKSNGKETVVGRLNETHIFNGSNWIMLIYKGGDEYDNHCGKEQRRAVVMISCNRHTLADNFNPVSEERGKVQDCFYLFEMDSSLACSPEISHLS | 1.25 |
